Source: PMC11417369, “DNA sequence and chromatin differentiate sequence-specific transcription factor binding in the human malaria parasite Plasmodium falciparum”

T1: AP2-LT D1 (Plasmodium falciparum, UniProt Q8IAM1 2520-2577)
T1 sequence: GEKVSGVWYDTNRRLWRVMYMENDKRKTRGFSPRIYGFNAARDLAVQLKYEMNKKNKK

B1: CACACA_site3390 (dsDNA)
DNA 1: ACAAAATAAAAACACACACACAAACACAAAAAAATA
DNA 2: TATTTTTTTGTGTTTGTGTGTGTGTTTTTATTTTGT
B2: CACACA_site8266 (dsDNA)
DNA 1: TATGCATATACACAAGCACACATATATATATATATA
DNA 2: TATATATATATATATGTGTGCTTGTGTATATGCATA
B3: CACACA_site4314 (dsDNA)
DNA 1: AATAAATAAAGAAGTACACACATATATATATATATA
DNA 2: TATATATATATATATGTGTGTACTTCTTTATTTATT
B4: CACACA_site7828 (dsDNA)
DNA 1: TATATAAATAGACACACACACACCTTATAATTACTA
DNA 2: TAGTAATTATAAGGTGTGTGTGTGTCTATTTATATA
B5: CACACA_site4351 (dsDNA)
DNA 1: CCCACAGACGGACACACACACATATATATATATATA
DNA 2: TATATATATATATATGTGTGTGTGTCCGTCTGTGGG
B6: CACACA_site2248 (dsDNA)
DNA 1: TATACATAGAAACACACACACATATATATATATATA
DNA 2: TATATATATATATATGTGTGTGTGTTTCTATGTATA
B7: CACACA_site2539 (dsDNA)
DNA 1: TATATATAGAAACACACACACACATATATATATATT
DNA 2: AATATATATATATGTGTGTGTGTGTTTCTATATATA
B8: CACACA_site4429 (dsDNA)
DNA 1: TAAACATACAGATACACACACACACCCACAGAGACA
DNA 2: TGTCTCTGTGGGTGTGTGTGTGTATCTGTATGTTTA
B9: CACACA_site6448 (dsDNA)
DNA 1: AAAATACACGCATACACACACACACGCGCACATATA
DNA 2: TATATGTGCGCGTGTGTGTGTGTATGCGTGTATTTT
B10: CACACA_site9270 (dsDNA)
DNA 1: AAAAAAAAAAAATATACACACACACCGACACATAAA
DNA 2: TTTATGTGTCGGTGTGTGTGTATATTTTTTTTTTTT
B11: CACACA_site905 (dsDNA)
DNA 1: AAAAAGGAGAAACACACACACACACCCATATATATA
DNA 2: TATATATATGGGTGTGTGTGTGTGTTTCTCCTTTTT
B12: CACACA_site5250 (dsDNA)
DNA 1: CGCGCCCAGAAACACACACACACACCGATATATATA
DNA 2: TATATATATCGGTGTGTGTGTGTGTTTCTGGGCGCG
B13: CACACA_site363 (dsDNA)
DNA 1: CACACCCACAGACACACACACACATATATATATATA
DNA 2: TATATATATATATGTGTGTGTGTGTCTGTGGGTGTG
B14: CACACA_site8035 (dsDNA)
DNA 1: TAAGTATACACATACACACACACACTAATAAAAAAA
DNA 2: TTTTTTTATTAGTGTGTGTGTGTATGTGTATACTTA
B15: CACACA_site6447 (dsDNA)
DNA 1: AATACACGCAGACACACACACACACGCACATATATA
DNA 2: TATATATGTGCGTGTGTGTGTGTGTCTGCGTGTATT
B16: CACACA_site8234 (dsDNA)
DNA 1: CTATTTCATAAACACACACACACAAACAAACATATA
DNA 2: TATATGTTTGTTTGTGTGTGTGTGTTTATGAAATAG
B17: CACACA_site5977 (dsDNA)
DNA 1: AATGACAACCTTGTCACACATATATATATATATATA
DNA 2: TATATATATATATATATGTGTGACAAGGTTGTCATT
B18: CACACA_site5033 (dsDNA)
DNA 1: TCATAGTATGGACACACACACACACCCATATATATA
DNA 2: TATATATATGGGTGTGTGTGTGTGTCCATACTATGA

The binders below were run against T1, AP2-LT D1 (assay: gcPBM; about 25 ug protein; PBS, 1% milk, 0.2 mg/ml BSA, salmon testes DNA, 0.03% Triton X-100). Conditions: tags: N-terminal GST (pGEX-4T-1), kept; label: surface-attached array probe.

Binder	binding signal
B1	10.1 ln median PBM intensity, better of two orientations
B2	10.1 ln median PBM intensity, better of two orientations
B3	10.3 ln median PBM intensity, better of two orientations
B4	10.2 ln median PBM intensity, better of two orientations
B5	10.2 ln median PBM intensity, better of two orientations
B6	10.2 ln median PBM intensity, better of two orientations
B7	10.1 ln median PBM intensity, better of two orientations
B8	10.1 ln median PBM intensity, better of two orientations
B9	10.2 ln median PBM intensity, better of two orientations
B10	10.2 ln median PBM intensity, better of two orientations
B11	10.2 ln median PBM intensity, better of two orientations
B12	10.2 ln median PBM intensity, better of two orientations
B13	10.3 ln median PBM intensity, better of two orientations
B14	10.2 ln median PBM intensity, better of two orientations
B15	10.3 ln median PBM intensity, better of two orientations
B16	10.2 ln median PBM intensity, better of two orientations
B17	10.2 ln median PBM intensity, better of two orientations
B18	10.2 ln median PBM intensity, better of two orientations
